Test results taken from patent US12275778 (dated 2025).
Positions count from the first letter of the chain named.

B1: Fab combination 21 (antibody, V domains shown)
VH: EVQLQQSGPELVKPGASVKMSCKASGYTFTDYYMKWVKQSHGKSLEWIGDINPNNGETWYNQKFKDKATLTVDKSSSTAYMQLNSLTSEDSAVYYCATRYFDYWGQGTTLTVSS
VL: DIVLTQSPASLAVSLGQRATISCKASQSVDYDGTSYMNWFQQKAGQPPKRLIYAASNLESGIPARFSGRGSGTDFALNIHPVEEEDAATYYCQQSNEDPYTFGGGTKLEIKR
B2: Fab combination 2 (antibody, V domains shown)
VH: B1 VH with Y33F, Y100V
VL: B1 VL
B3: Fab combination 5 (antibody, V domains shown)
VH: B1 VH with Y33F, Y103F
VL: B1 VL
B4: Fab combination 22 (antibody, V domains shown)
VH: B1 VH with Y100V, Y103F
VL: B1 VL
B5: Fab combination 9 (antibody, V domains shown)
VH: B1 VH with Y33I, W59F, Y100V
VL: B1 VL
B6: Fab combination 15 (antibody, V domains shown)
VH: B1 VH with Y33I, W59F, Y100V, Y103F
VL: B1 VL
B7: Fab combination 11 (antibody, V domains shown)
VH: B1 VH with Y33I
VL: B1 VL
B8: Fab combination 23 (antibody, V domains shown)
VH: B1 VH with Y103F
VL: B1 VL
B9: Fab combination 3 (antibody, V domains shown)
VH: B1 VH with Y33F
VL: B1 VL
B10: Fab combination 7 (antibody, V domains shown)
VH: B1 VH with Y33F, W59F, Y100V, Y103F
VL: B1 VL
B11: Fab combination 16 (antibody, V domains shown)
VH: B1 VH with Y33I, W59F, Y103F
VL: B1 VL
B12: Fab combination 13 (antibody, V domains shown)
VH: B1 VH with Y33I, Y103F
VL: B1 VL
B13: Fab combination 20 (antibody, V domains shown)
VH: B1 VH with W59F, Y103F
VL: B1 VL
B14: Fab combination 12 (antibody, V domains shown)
VH: B1 VH with Y33I, Y100V, Y103F
VL: B1 VL
B15: Fab combination 17 (antibody, V domains shown)
VH: B1 VH with Y100V
VL: B1 VL
B16: Fab combination 8 (antibody, V domains shown)
VH: B1 VH with Y33F, W59F, Y103F
VL: B1 VL
B17: Fab combination 18 (antibody, V domains shown)
VH: B1 VH with W59F
VL: B1 VL
B18: parental Fab (TnT M-7) (antibody, V domains shown)
VH: B1 VH with W59F, Y100V
VL: B1 VL
B19: Fab combination 4 (antibody, V domains shown)
VH: B1 VH with Y33F, Y100V, Y103F
VL: B1 VL
B20: Fab combination 19 (antibody, V domains shown)
VH: B1 VH with W59F, Y100V, Y103F
VL: B1 VL
B21: Fab combination 1 (antibody, V domains shown)
VH: B1 VH with Y33F, W59F, Y100V
VL: B1 VL

biological target: cardiac troponin T (recombinant human) (human); test: SPR, 37C

| Kd [pM] | Binder |
| --- | --- |
| 1600 | B1 |
| 460 | B2 |
| 230 | B3 |
| 0.0038 | B4 |
| 1200 | B5 |
| 1100 | B6 |
| 1000 | B7 |
| 1200 | B8 |
| 370 | B9 |
| 450 | B10 |
| 3400 | B11 |
| 620 | B12 |
| 1100 | B13 |
| 320 | B14 |
| 540 | B15 |
| 200 | B16 |
| 1600 | B17 |
| 580 | B18 |
| 2.7 | B19 |
| 460 | B20 |
| 620 | B21 |
